Laboratory results published in patent EP1177203B1.

Tests used:
[1] = molecular target: Mouse laminin (isolated from the EHS-sarcoma, Life Technologies) (mouse) (UniProt P19137); experiment: adherence assay; 46°C-grown MC02152 cells on LN-coated wells
[2] = molecular target: Mouse laminin (isolated from the EHS-sarcoma, Life Technologies) (mouse) (UniProt P19137); experiment: adherence assay; 37°C-grown MC02152 cells on LN-coated wells
[3] = molecular target: Bovine serum albumin (bovine) (UniProt P02769); experiment: adherence assay; MC02152 cells (46°C) on BSA-coated wells (negative control); no IgG
UniProt P02769, sequence (P02769 25-607 limits assumed): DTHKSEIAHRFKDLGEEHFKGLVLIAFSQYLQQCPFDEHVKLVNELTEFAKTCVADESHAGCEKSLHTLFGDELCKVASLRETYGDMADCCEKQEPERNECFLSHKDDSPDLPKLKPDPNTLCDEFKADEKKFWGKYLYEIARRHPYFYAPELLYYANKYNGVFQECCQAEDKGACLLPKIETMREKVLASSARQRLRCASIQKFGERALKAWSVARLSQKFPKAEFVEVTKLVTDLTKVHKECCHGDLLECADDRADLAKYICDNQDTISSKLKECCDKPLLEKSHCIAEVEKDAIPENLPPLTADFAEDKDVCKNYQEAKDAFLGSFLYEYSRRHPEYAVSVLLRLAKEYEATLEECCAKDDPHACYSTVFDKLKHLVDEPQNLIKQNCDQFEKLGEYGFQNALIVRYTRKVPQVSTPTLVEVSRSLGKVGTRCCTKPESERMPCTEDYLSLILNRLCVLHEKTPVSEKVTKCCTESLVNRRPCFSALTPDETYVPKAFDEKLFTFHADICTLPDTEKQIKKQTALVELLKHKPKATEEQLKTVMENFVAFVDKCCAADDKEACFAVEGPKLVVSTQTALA

Collagen type IV (Sigma) [4] = experiment: adherence assay; 46°C-grown MC02152 cells on CIV-coated wells
Collagen type IV (Sigma) [5] = experiment: adherence assay; MC02152 cells (46°C) on CIV-coated wells; no IgG
Collagen type IV (Sigma) [6] = experiment: adherence assay; 37°C-grown MC02152 cells on CIV-coated wells
[7] = molecular target: Mouse laminin (isolated from the EHS-sarcoma, Life Technologies) (mouse) (UniProt P19137); experiment: adherence assay; MC02152 cells (46°C) on LN-coated wells; no IgG
[8] = molecular target: Collagen type I (Sigma), immobilized; experiment: adherence assay; 46°C-grown MC02152 cells on CI-coated wells
[9] = molecular target: Collagen type I (Sigma), immobilized; experiment: adherence assay; 37°C-grown MC02152 cells on CI-coated wells
[10] = molecular target: Collagen type I (Sigma), immobilized; experiment: adherence assay; MC02152 cells (46°C) on CI-coated wells; no IgG
[11] = molecular target: Collagen type I (Sigma), immobilized; experiment: adherence assay, 35S-labelled 46°C-grown OG1RF cells on CI-coated wells (3.3% is the ace mutant TX5256)
[12] = molecular target: Collagen type I (Sigma), immobilized; experiment: adherence assay; OG1RF cells (46°C) on CI-coated wells; no IgG
[13] = molecular target: Collagen type I (Sigma), immobilized; experiment: as above; remark: listed apart in the source
Collagen type IV (Sigma) [14] = experiment: adherence assay; OG1RF cells (46°C) on CIV-coated wells; no IgG
[15] = molecular target: Mouse laminin (isolated from the EHS-sarcoma, Life Technologies) (mouse) (UniProt P19137); experiment: adherence assay; OG1RF cells (46°C) on LN-coated wells; no IgG
Collagen type IV (Sigma) [16] = experiment: adherence assay; OG1RF cells (46°C) on CIV-coated wells; no IgG; remark: listed apart in the source
[17] = molecular target: Bovine serum albumin (bovine) (UniProt P02769); experiment: adherence assay; OG1RF cells (46°C) on BSA-coated wells (negative control); no IgG
Collagen type IV (Sigma) [18] = experiment: adherence assay, 46°C-grown cells on CIV-coated wells
[19] = molecular target: Collagen type I (Sigma), immobilized; experiment: adherence assay, 46°C-grown cells on CI-coated wells
[20] = molecular target: Mouse laminin (isolated from the EHS-sarcoma, Life Technologies) (mouse) (UniProt P19137); experiment: adherence assay, 46°C-grown cells on LN-coated wells
[21] = molecular target: Bovine serum albumin (bovine) (UniProt P02769); experiment: adherence assay; OG1RF cells (46°C) on BSA-coated wells (negative control); no IgG; remark: listed apart in the source
[22] = molecular target: Mouse laminin (isolated from the EHS-sarcoma, Life Technologies) (mouse) (UniProt P19137); experiment: adherence assay; OG1RF cells (46°C) on LN-coated wells; no IgG; remark: listed apart in the source
[23] = molecular target: Collagen type I (Sigma), immobilized; experiment: adherence assay; V583 cells (46°C) on CI-coated wells; no IgG
[24] = molecular target: Bovine serum albumin (bovine) (UniProt P02769); experiment: adherence assay; V583 cells (46°C) on BSA-coated wells (negative control); no IgG
[25] = molecular target: Mouse laminin (isolated from the EHS-sarcoma, Life Technologies) (mouse) (UniProt P19137); experiment: adherence assay; V583 cells (46°C) on LN-coated wells; no IgG
Collagen type IV (Sigma) [26] = experiment: adherence assay; V583 cells (46°C) on CIV-coated wells; no IgG
[27] = molecular target: Bovine Type I collagen (Collagen Corp.), immobilized on a CM5 sensor chip (bovine) (UniProt P02453); experiment: SPR (BIAcore 1000), Scatchard analysis of equilibrium responses, 1-70 µM Ace A over immobilised collagen; three measurements
UniProt P02453, sequence (P02453 162-1217, chain 1 of 2): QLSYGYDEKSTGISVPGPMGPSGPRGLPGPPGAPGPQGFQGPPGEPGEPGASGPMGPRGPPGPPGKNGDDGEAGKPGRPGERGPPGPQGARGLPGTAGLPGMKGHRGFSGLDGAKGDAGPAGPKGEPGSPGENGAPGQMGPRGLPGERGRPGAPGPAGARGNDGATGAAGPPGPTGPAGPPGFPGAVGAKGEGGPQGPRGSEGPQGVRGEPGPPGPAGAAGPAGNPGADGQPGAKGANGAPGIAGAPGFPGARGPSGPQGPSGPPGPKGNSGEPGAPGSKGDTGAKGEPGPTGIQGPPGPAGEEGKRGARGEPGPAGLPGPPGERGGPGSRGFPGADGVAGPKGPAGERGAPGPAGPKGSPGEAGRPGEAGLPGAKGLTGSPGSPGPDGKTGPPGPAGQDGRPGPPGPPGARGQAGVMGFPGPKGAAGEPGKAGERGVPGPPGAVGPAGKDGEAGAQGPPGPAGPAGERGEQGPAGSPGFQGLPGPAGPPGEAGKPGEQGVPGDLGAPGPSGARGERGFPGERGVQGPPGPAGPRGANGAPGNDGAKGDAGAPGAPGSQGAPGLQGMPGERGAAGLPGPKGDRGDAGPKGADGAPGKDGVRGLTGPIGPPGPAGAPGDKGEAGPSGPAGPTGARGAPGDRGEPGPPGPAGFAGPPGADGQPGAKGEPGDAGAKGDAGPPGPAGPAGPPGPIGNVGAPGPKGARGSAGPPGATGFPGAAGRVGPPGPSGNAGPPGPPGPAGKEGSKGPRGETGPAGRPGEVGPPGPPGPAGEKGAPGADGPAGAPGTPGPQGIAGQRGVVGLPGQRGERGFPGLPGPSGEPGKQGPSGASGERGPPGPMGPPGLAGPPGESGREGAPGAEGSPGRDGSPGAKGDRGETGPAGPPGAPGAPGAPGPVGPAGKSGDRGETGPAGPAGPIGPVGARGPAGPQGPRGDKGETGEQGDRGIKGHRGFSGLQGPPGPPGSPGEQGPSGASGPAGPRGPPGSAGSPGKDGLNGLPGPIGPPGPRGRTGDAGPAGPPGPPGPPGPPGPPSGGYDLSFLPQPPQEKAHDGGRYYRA
UniProt P02453, sequence (P02465 80-1117, chain 2 of 2, further chain): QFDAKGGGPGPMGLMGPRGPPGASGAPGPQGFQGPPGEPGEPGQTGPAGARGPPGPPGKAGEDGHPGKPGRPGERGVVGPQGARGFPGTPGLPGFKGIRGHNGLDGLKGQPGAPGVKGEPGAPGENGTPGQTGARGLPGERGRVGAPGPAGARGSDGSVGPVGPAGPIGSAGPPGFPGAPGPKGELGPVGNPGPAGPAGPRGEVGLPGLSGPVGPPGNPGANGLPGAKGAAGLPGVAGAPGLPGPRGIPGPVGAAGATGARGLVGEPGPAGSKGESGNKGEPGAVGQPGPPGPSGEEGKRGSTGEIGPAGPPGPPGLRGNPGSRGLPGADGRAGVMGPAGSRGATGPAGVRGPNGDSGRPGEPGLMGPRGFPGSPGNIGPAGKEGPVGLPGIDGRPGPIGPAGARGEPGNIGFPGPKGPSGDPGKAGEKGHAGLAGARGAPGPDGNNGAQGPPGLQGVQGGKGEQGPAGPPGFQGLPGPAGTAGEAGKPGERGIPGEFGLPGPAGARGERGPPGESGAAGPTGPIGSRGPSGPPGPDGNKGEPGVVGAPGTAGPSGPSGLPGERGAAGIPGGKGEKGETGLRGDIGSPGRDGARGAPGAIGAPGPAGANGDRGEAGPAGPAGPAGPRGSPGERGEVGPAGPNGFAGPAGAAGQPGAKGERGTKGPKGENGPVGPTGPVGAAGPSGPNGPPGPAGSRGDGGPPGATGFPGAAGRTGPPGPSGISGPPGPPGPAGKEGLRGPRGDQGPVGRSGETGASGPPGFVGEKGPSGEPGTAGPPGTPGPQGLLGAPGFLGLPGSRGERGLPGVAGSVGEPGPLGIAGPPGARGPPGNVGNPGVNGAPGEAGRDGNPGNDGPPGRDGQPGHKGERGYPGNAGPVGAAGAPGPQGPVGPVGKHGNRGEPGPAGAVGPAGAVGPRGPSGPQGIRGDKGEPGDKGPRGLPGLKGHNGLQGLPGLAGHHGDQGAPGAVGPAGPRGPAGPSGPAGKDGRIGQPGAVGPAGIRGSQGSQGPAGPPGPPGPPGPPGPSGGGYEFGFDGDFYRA

## Ace protein of E. faecalis strain MC02152 (native; on cells or in mutanolysin extract)
[1]
  % of cells bound: 41%
[2]
  % of cells bound: 7.1%
[3]
  % of cells bound: 0.6%
Collagen type IV (Sigma) [4]
  % of cells bound: 38%
Collagen type IV (Sigma) [5]
  % of cells bound: 27.7%
Collagen type IV (Sigma) [6]
  % of cells bound: 8.9%
[7]
  % of cells bound: 26.7%
[8]
  % of cells bound: 29%
[9]
  % of cells bound: 6%
[10]
  % of cells bound: 26%

## Ace protein of E. faecalis strain OG1RF (native; on 46°C-grown cells or in mutanolysin-PMSF extracts)
[11]
  % of cells bound: 21.1%
[12]
  % of cells bound: 24.6%
[13]
  % of cells bound: 25.6%
Collagen type IV (Sigma) [14]
  % of cells bound: 29.6%
[15]
  % of cells bound: 31.9%
Collagen type IV (Sigma) [16]
  % of cells bound: 27.7%
[17]
  % of cells bound: 0.6%
Collagen type IV (Sigma) [18]
  fold decrease in adherence, ace mutant TX5256 against OG1RF: 27.4 fold
[19]
  fold decrease in percentage of binding, ace mutant TX5256 against OG1RF: 6.5 fold
[20]
  fold decrease in adherence, ace mutant TX5256 against OG1RF: 32.9 fold
[21]
  % of cells bound: 0.9%
[22]
  % of cells bound: 32%

## Ace protein of E. faecalis strain V583 (native; on 46°C-grown cells or in mutanolysin extract)
[23]
  % of cells bound: 29.2%
[24]
  % of cells bound: 0.7%
[25]
  % of cells bound: 29.4%
Collagen type IV (Sigma) [26]
  % of cells bound: 38.1%

## Recombinant E. faecalis EF1 Ace A domain (N-terminal His6-tag fusion protein)
[27]
  Kd: 48 µM
